Data as given in the Human Domainome abundance scans (Beltran et al. 2025).
± gives the uncertainty stated by the source.

B1: Far upstream element-binding protein 3, residues 75 to 150; numbered along this chain, Q96I24 (parent)
chain: RTVITEEFKVPDKMVGFIIGRGGEQISRIQAESGCKIQIASESSGIPERPCVLTGTPESIEQAKRLLGQIVDRCRN

Variants of: B1
Assay: abundance fitness (aPCA) (normalised: wild type 0, dead -1); higher = more abundant; growth selection in yeast, the domain comes from the species named
Conditions: Homo sapiens

First: RTVITEEFKVPDKMVGFIIGRGGEQISRIQAESGCKIQIASESSGIPERPCVLTGTPESIEQAKRLLGSIVDRCRN [Q69S]
Second: RTVITEEFKVPDKMVGFIIGRGGEQISRIQAESGCKIQIASESSGIPNRPCVLTGTPESIEQAKRLLGQIVDRCRN [E48N]
The abundance fitness of the first is higher: -0.002 ± 0.031 for the first, -0.1 ± 0.06 for the second.

First: RTVITEEFKVPDKMVGFIIGRGGEQISRIQAESGCKIQIASESSGIPPRPCVLTGTPESIEQAKRLLGQIVDRCRN [E48P]
Second: RTVITEEFKVPDKMVGFIIGRGGEQISRIQAESGCKIQIASESSGIPQRPCVLTGTPESIEQAKRLLGQIVDRCRN [E48Q]
The abundance fitness of the first is lower: -0.242 ± 0.042 for the first, -0.108 ± 0.04 for the second.

RTVITEEFKVPDKMVGFIIGRGGEQISRIQAESGCKIQIASESSGIPERPCVLTGTPESIEQAKRLLGQIVDRNRN [C74N] and RTVITEEFKVPDKMVGFIIGRGGEQISRIRAESGCKIQIASESSGIPERPCVLTGTPESIEQAKRLLGQIVDRCRN [Q30R] are within error of each other in abundance fitness: -0.007 ± 0.071 for the first, -0.05 ± 0.026 for the second.

RTVITEEFKVPDKMVGFIIGRGGEQISRIQAESGCKIQIASESSGIPERPCVLTGTPESIEQAKRLLGQIVVRCRN [D72V] and RTVITEEFKVPDKMVGFIIGRGGEQISRIQAESGCKIQIASESSGIPERPCVLTGTPESIEQAKRLLGQIVYRCRN [D72Y] are within error of each other in abundance fitness: -0.093 ± 0.029 for the first, -0.124 ± 0.064 for the second.

Compared with RTVITEEFKVPDKMVGFIIGRGGEQISRIQAESGCKIQSASESSGIPERPCVLTGTPESIEQAKRLLGQIVDRCRN [I39S], RTVITEEFKVHDKMVGFIIGRGGEQISRIQAESGCKIQIASESSGIPERPCVLTGTPESIEQAKRLLGQIVDRCRN [P11H] is higher in abundance fitness: -0.485 ± 0.037 for the first, -0.217 ± 0.066 for the second.

RTVITEEFKVGDKMVGFIIGRGGEQISRIQAESGCKIQIASESSGIPERPCVLTGTPESIEQAKRLLGQIVDRCRN [P11G] and RTVITEEFKVADKMVGFIIGRGGEQISRIQAESGCKIQIASESSGIPERPCVLTGTPESIEQAKRLLGQIVDRCRN [P11A] are within error of each other in abundance fitness: -0.254 ± 0.031 for the first, -0.219 ± 0.033 for the second.

RTVITEEFKVPDKMVGFIIGRGGEQISRIQAESGCKIQIASESSGIPERPCVLTGTPESIEQRKRLLGQIVDRCRN [A63R] and RTVITEEFKVPDKMVGFIIGRGGEQISRIQAESGCKIQIASESSGIPERPCVLTGTPESIEQNKRLLGQIVDRCRN [A63N] are within error of each other in abundance fitness: -1.22 ± 0.048 for the first, -1.25 ± 0.2 for the second.

Going from RTVITEEFKVPDKMVGFIIGRGGEQISRIQAESGCKIQIASESSGIPERPCVLTGTPESIEQMKRLLGQIVDRCRN [A63M] to RTVITEEFKHPDKMVGFIIGRGGEQISRIQAESGCKIQIASESSGIPERPCVLTGTPESIEQAKRLLGQIVDRCRN [V10H], the abundance fitness falls from -0.292 ± 0.041 to -0.4 ± 0.053.

Going from RTVITEEFKDPDKMVGFIIGRGGEQISRIQAESGCKIQIASESSGIPERPCVLTGTPESIEQAKRLLGQIVDRCRN [V10D] to RTVITEEFKVPDKMVGFIIGRGGEQISRIQAESGCKIQIAWESSGIPERPCVLTGTPESIEQAKRLLGQIVDRCRN [S41W], the abundance fitness rises from -0.479 ± 0.05 to -0.159 ± 0.033.

RTVITEEFKVPDKMVGFIIGRGGEQISRIQAESGCKIQIAAESSGIPERPCVLTGTPESIEQAKRLLGQIVDRCRN [S41A] and RTVITEEFKVPDKMVGFIAGRGGEQISRIQAESGCKIQIASESSGIPERPCVLTGTPESIEQAKRLLGQIVDRCRN [I19A] are within error of each other in abundance fitness: -0.035 ± 0.031 for the first, -0.074 ± 0.034 for the second.

TTVITEEFKVPDKMVGFIIGRGGEQISRIQAESGCKIQIASESSGIPERPCVLTGTPESIEQAKRLLGQIVDRCRN [R1T] and RTVITEEFKVPDKMVGFIIGRGGEQISRIQAESGCKIQIASESSGIPERPCVLIGTPESIEQAKRLLGQIVDRCRN [T54I] are within error of each other in abundance fitness: 0.028 ± 0.053 for the first, -0.065 ± 0.12 for the second.

First: RTVITEEFKVPDKMVGFIIGRGGEQISRIQAESGCKIQIASESSGIPERPCVLCGTPESIEQAKRLLGQIVDRCRN [T54C]
Second: RTVITEEFKVPDKMVGFIIGRGGEQISRIQAESGCKIQIASESSGIPERPCVLTGTPEIIEQAKRLLGQIVDRCRN [S59I]
The abundance fitness of the first is higher: -0.187 ± 0.066 for the first, -0.621 ± 0.13 for the second.

RTVITEEFKVPDKMVGFIIGRGGEQISRIQAESGCKIQIASESSGIPERPCVLTGTPESIESAKRLLGQIVDRCRN [Q62S] and RTVITEEFKVPDKMVGFIIGRGGEQISRIQAESGCKIQIASESSGIPERPCVLTGTPESIEAAKRLLGQIVDRCRN [Q62A] are within error of each other in abundance fitness: -0.023 ± 0.03 for the first, -0.01 ± 0.033 for the second.

First: RTVITEEFKVPDKMVGFIIGRGGEEISRIQAESGCKIQIASESSGIPERPCVLTGTPESIEQAKRLLGQIVDRCRN [Q25E]
Second: RTVITEEFKVPDKMVGFIIGRGGEQISRIQAESGCKIQIASESSGIPEFPCVLTGTPESIEQAKRLLGQIVDRCRN [R49F]
The abundance fitness of the first is higher: -0.024 ± 0.036 for the first, -0.195 ± 0.058 for the second.

Going from RTVITEEFKVPDKMVGFIIGRGGEQISRIQAESGCKIQIASESSGIPEDPCVLTGTPESIEQAKRLLGQIVDRCRN [R49D] to RTVITEEFKVPDKMVGFIIGRGGEQISRIQAESGCKIQIASESSGIPERPCILTGTPESIEQAKRLLGQIVDRCRN [V52I], the abundance fitness rises from -0.251 ± 0.056 to -0.034 ± 0.057.

RTVITEEFKVPDKMVGFIIGRGGEQISRIQAESGCKIQIASESSGIPERPCALTGTPESIEQAKRLLGQIVDRCRN [V52A] and RTVITEEFKVPDKMVGFIIGRGGEQISSIQAESGCKIQIASESSGIPERPCVLTGTPESIEQAKRLLGQIVDRCRN [R28S] are within error of each other in abundance fitness: -0.029 ± 0.033 for the first, -0.085 ± 0.035 for the second.

RTVITEEFKVPDKMVGFIIGRGGEQISRIQAESGCKIQIASESSGIPERPCVLTGTPQSIEQAKRLLGQIVDRCRN [E58Q] and RTVITEEFKVPDKMVGFIIGRGGEQISRIQAESGCKIQIASESSGIPERPCVLTGTPTSIEQAKRLLGQIVDRCRN [E58T] are within error of each other in abundance fitness: -0.066 ± 0.044 for the first, -0.003 ± 0.048 for the second.

First: RTVITEEFKVPDKMVGFIIGRGGEQISRIQAESGCKIQIASESSGIPERPCVLTGTPKSIEQAKRLLGQIVDRCRN [E58K]
Second: RTVGTEEFKVPDKMVGFIIGRGGEQISRIQAESGCKIQIASESSGIPERPCVLTGTPESIEQAKRLLGQIVDRCRN [I4G]
The abundance fitness of the first is higher: 0.045 ± 0.073 for the first, -0.14 ± 0.026 for the second.
